The values that follow come from the nanobody polyreactivity screen of Harvey et al. (2022).

The nature of the data set: yeast display, Sf9 membrane polyspecificity reagent, FACS + sequencing; frameworks hold sequencing errors. The method in brief:
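Nanobodies from a synthetic yeast display library (Saccharomyces cerevisiae BJ5465), induced 36–48 hours with galactose, were stained 1 hour at 4 °C with 10% biotinylated, detergent-solubilized Sf9 membrane reagent, enriched on streptavidin microbeads, then FACS-sorted. Anti-HA (expression) and streptavidin (reagent binding) fluorescence set low and high (top ~1%) gates. Polyreactivity labels come from the gate of origin. Genes were colony-PCR amplified, MiSeq 2 × 250 sequenced and filtered by CDR length.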
As to “QVQLVESGGGLVQAGGSLRLSCAASGNIFDIYAMGWYRQAPGKERELVAAISSGGSTYYADSVKGRFTISRDNAKNTVYFQMNSLKPEDTAVYYCAESRVGYYRYEYWGQGTQVTVSS”, the “polyreactivity (PSR sort gate)” value is recorded as “low polyreactivity”. For “QVQLVESGGGLVQAGGSLRLSCAASGNIFDIYAMGWYRQAPGKERELVAAITSGVRTYYADSVKGLFTISRDNAKNTVYLQMNSVKPEDTAVYYCATPSPHVGLKWEYDYWGQGTQVTVSS” the value was “low polyreactivity”.

Take “QVQLVESGGGLVQAGGSLRLSCAASGNIFDQNAMGWYRQAPAKERELVAAITRSGSTTYYADSVKGRFTISRDNAKNTVYLQMNSLKPEDTAVYYCAAKVYAYRTYKMYYWGEGTQVTVSS”: the “polyreactivity (PSR sort gate)” value was “high polyreactivity”. In the case of “QVQLVESGGGLVQAGGSLRLSCAASGNIFDYYAMGWYRQAPGKERELVAAISTGTSTYADSVKGRFTISRDNAKNTVYLQMNSVKPEDTAVYYCASDVGIRPLNYHPYNYWGQGTQVTVSS” it was “low polyreactivity”; in that of “QVQLVESGGGLVQAGGSLRLSCAASGNIFFSNAMGWYRQAPGKERELLASISQSGGSTYYADSVKGRFTISRDNAKNTVYLQMNSLKPEDTAVYYCAATQVRRGPAWGRDYWGQGTQVTVSS”, “low polyreactivity”.

As for “QVQLVESGGGLVQAGGSLRLSCAASGNIFGRYAMGWYRQAPGKERELVAAINWSGGSTNYADSVKGRFTISRDNAKNTVYLQMNSLKPEDTAVYYCAADYYYSLISNQYKYGQRNFDYWGQGTQVTVSS”, the “polyreactivity (PSR sort gate)” value was “low polyreactivity”. “QVQLVESGGGLVQAGGSLRLSCAASGNIFGRYAMGWYRQAPGKERELVAAISWSGGSTFYADSVKGRFTISRDNAKNTVYLQMNSLKPEDTAVYYCAAEYWVYDSYWFDYDYWGQGTQVTVSS”: the “polyreactivity (PSR sort gate)” value is “high polyreactivity”. For “QVQLVESGGGLVQAGGSLRLSCAASGNIFGYNAMGWYRQAPGKERELVAAITSDGRTYYADSVKGRFTISRDNAKNTVYLQMNSLKPEDTAVYYCAADSSGYYWFNYWGQGTQVTVSS” the value was “low polyreactivity”.

In the case of “QVQLVESGGGLVQAGGSLRLSCAASGNIFLSYAMGWYRQAPGKERELVAGISASGGRTYYADSVKGRFTISRDNAKNTVYLQMNSLKPEDTAVYYCATRNTRFHLDYWGQGTQVNVSS”, the “polyreactivity (PSR sort gate)” value is given as “high polyreactivity”. For “QVQLVESGGGLVQAGGSLRLSCAASGNIFLYYAMGWYRQAPGNERELVADIDSSGASTYYADSVKGRFTISRDNAKNTVYFQMNSLKPEDTAVYYCASEFHWWYAGYDYGYWGQGTQVTVSS” the value was “low polyreactivity”; for “QVQLVESGGGLVQAGGSLRLSCAASGNIFNGNAMGWYRQAPGKERELVAAIRGNGGITYYADSVKGRFTISRDNAKNTVYLQMNSLKPEDTAVYYCAVRSAWVYGIGRYYWGQGTQVTVSS”, “high polyreactivity”.

For “QVQLVESGGGLVQAGGSLRLSCAASGNIFPYNAMAWYRQAPGKERELVATISSGGSTYYADSVKGRFTISRDNAKNTVYLQMNSLKPEDTAVYYCAARGRYPYRYGYWGQGTQVTVSS”, the “polyreactivity (PSR sort gate)” value is “high polyreactivity”. For “QVQLVESGGGLVQAGGSLRLSCAASGNIFRANPMGWYRQAPGKERELVASITVSGGSTNYADSVKGRFTISRDNAKNTVYLQMNSLKPEDTAVYYCAKTLTRSVKFSTVLLGPTPDYYWGQGTQVTVSS” the value was “high polyreactivity”; for “QVQLVESGGGLVQAGGSLRLSCAASGNIFRGYTMGWYRQAPGKERELVATITWNGVSTFYADSVKGRFTISRDNAKNTVYLQMNSLKPEDTAVYYCAAYYPSHDYSGFWSDTYEYWGQVTQVTVSS”, “low polyreactivity”. In the case of “QVQLVESGGGLVQAGGSLRLSCAASGNIFRGYTMGWYRQAPGKERELVAVISFGDGGTYYADSVKGRFTISRDNAKNTVYLQMNSLKPEDTAVYYCATDYQSTSVWGGHFVINPYDYWGQGTQVTVSS” it was “low polyreactivity”.

In the case of “QVQLVESGGGLVQAGGSLRLSCAASGNIFRNNAMGWYRQAPGKERELVAAISRGGSTYYADSVKGRFTISRDNAKNTVYLQMNSLKPEDTAVYYCNKYSSRAYNYWGQGTQVTVSS”, the “polyreactivity (PSR sort gate)” value is reported as “high polyreactivity”. “QVQLVESGGGLVQAGGSLRLSCAASGNIFSDNAMGWYRQAPGKESELVAAITSGGSTNYADSVKGRFTISRDNAKNTVYLQMNSLKPEDTAVYYCAADISYRHFLFDYWGQGTQVTVSS”: the “polyreactivity (PSR sort gate)” value is given as “low polyreactivity”. “QVQLVESGGGLVQAGGSLRLSCAASGNIFSDYTMGWYRQAPGKERELVAAISGDGGTTYYADSVKGRFTISRDNAKNTVYLQMNSLKPEDTAVYYCAADGYYDAYDQFFIVYYEYDYWGQGTQVTVSS”: the “polyreactivity (PSR sort gate)” value is listed as “low polyreactivity”. For “QVQLVESGGGLVQAGGSLRLSCAASGNIFSSNAMGWYRQAPGKERELVAAISASGGNTYYSDSVKGRFTISRDNAKNTVYLQMNSLKPEDTAFYYCNAYRGGYLRRGYYYWGQGTQVTVSS” the value was “high polyreactivity”; for “QVQLVESGGGLVQAGGSLRLSCAASGNIFSSNDMGWYRQAPGKQRELVAANTRSGGSTYYADSVKGRFTISRDNAKNTLYIQMNSHTPEDTAVYDGAGRPYPRNSWGYDDWGQGTQVTVSS”, “high polyreactivity”; for “QVQLVESGGGLVQAGGSLRLSCAASGNIFSSYVMGWYRHAPGKERELVAAISSRGGSTYYADSVKGRFTISRDNAKNTVYLQMNSLKPEDTAVYYCAARYLSWYDWGQGTQVTVSS”, “high polyreactivity”. In the case of “QVQLVESGGGLVQAGGSLRLSCAASGNIFSWYAMGWYRQAPGKERELVAAITSGGITYYADSVKGRFTISRDNAKNTVYLQMNSLKPEDTAVYYCNIDVGFTRPLYYWGQGTQVTVSS” it was “low polyreactivity”; in that of “QVQLVESGGGLVQAGGSLRLSCAASGNIFTGYMGWYRQAPGKERELVAAISRSGGRTHYADSVKGRFTISRDNAKNTVYLQMNSLKPEDTAVYYCNADVRRYTAFTKDAYAFNYWGQGTQVTVSS”, “high polyreactivity”.

For the sequence “QVQLVESGGGLVQAGGSLRLSCAASGNIFTLNTSGCYRQAPGKERELVARITSGDRKYYADSVKGRFTISRDNAKNTVYLQMNSLKPEDTAVYYCAARRPAYYSFWVTGYNYWGQGTQVTVSS”, the “polyreactivity (PSR sort gate)” value is on record as “high polyreactivity”. In the case of “QVQLVESGGGLVQAGGSLRLSCAASGNIFTNNAMGWYRQAPGKEREFVAAITRSGGSTSYADSVKGRFTISRDNAKNTVYLQMISLNPEDTAVYYCAATGYRYRRIYGFDYWGQGTQVTVSS” it was “high polyreactivity”; in that of “QVQLVESGGGLVQAGGSLRLSCAASGNIFTRNAMGWYRQAPGKVRELVASITRGGSTYADSVKGLFTISRDNAKNTVYLQMNSLKPEDTAVYYCAASCYYSSHMDYWGQGTQVTVSS”, “high polyreactivity”.

Consider “QVQLVESGGGLVQAGGSLRLSCAASGNIFVFYVMGWYRQAPGKERELVASISSTGNTYYADSVKGRFTISRENAMNTVYLQLNRLKPEDTAVYYCAADSHQNVSGWLRWPRMDYWGQGTQVTVSA”, for which the “polyreactivity (PSR sort gate)” value is “low polyreactivity”. “QVQLVESGGGLVQAGGSLRLSCAASGNIFVLNPMGWYRQATCKETELVAAISRSGVRTYYADSVKGRFTISRDNAKNTVYLQMNSLKPEDTAVYYCAAVYKRLQPYGYWGQGTQETVSS”: the “polyreactivity (PSR sort gate)” value is “high polyreactivity”. Consider “QVQLVESGGGLVQAGGSLRLSCAASGNIFVWNDMGWYRQAPGKERELVAAISLSGSSTYYADSVKGRFTISRDNAKNTVYLQMNSLKPEDTAVYYCATTRRVPGEYWGQGTQVTVSS”, for which the “polyreactivity (PSR sort gate)” value is “high polyreactivity”. Turning to “QVQLVESGGGLVQAGGSLRLSCAASGNIFWGNAMGWYRQAPGKERELVAAITSIDSSTYYADSVKGRFTISRDNAKNTVYLQMNSLKPEDTAVYYCAADGDWYGYIWQSDDGYDSWGQGTQVTVSS”, the “polyreactivity (PSR sort gate)” value is “low polyreactivity”. In the case of “QVQLVESGGGLVQAGGSLRLSCAASGNIFWRNAMGWYRQAPGKERELVAAISRRAVSTYYADSVKGRFTISRDNAKNTVYLQMNSLKPEDTAVYYCAARLGGENDYWGQGTQVTVSS” it was “high polyreactivity”. Consider “QVQLVESGGGLVQAGGSLRLSCAASGNIFYANAMGWYRQAPGKERELVAGITVRGGRTYYADSVKGRFTISRDNAKNTVYLQMNSLKPEDNAVYYCAVRSRGSRYDYWGQGTQVNVSS”, for which the “polyreactivity (PSR sort gate)” value is reported as “high polyreactivity”.

For the sequence “QVQLVESGGGLVQAGGSLRLSCAASGNIFYAYDMGWYRQAPGKERELVAAITNGDSTDYADSVKGRFTISRDNAKNTVYLQMNSLKPEDTAVYYCNADYLPEPWALGGSQYDYWGQGTQVTVSS”, the “polyreactivity (PSR sort gate)” value was “low polyreactivity”.

Consider “QVQLVESGGGLVQAGGSLRLSCAASGNIFYGYAMGWYRQAPGKERELVAAITSDGITYYADSVKGRFTISRDNAKNTVYLQMNSLKPEDTAVYYCNVTQLYEYYKYYYWGQGTQVTVSS”, for which the “polyreactivity (PSR sort gate)” value is “low polyreactivity”.

Turning to “QVQLVESGGGLVQAGGSLRLSCAASGNIFYRKARGWYRQAPGKERELVAAITSGGGSTYYADSVKGRFTISRDNAKNTVYLQMNSLKPVDTAVYYCNAYAWNYFGIKVTYDYWGQGTQVTVSS”, the “polyreactivity (PSR sort gate)” value was “high polyreactivity”. On to “QVQLVESGGGLVQAGGSLRLSCAASGNIFYVYVMGWYRQAPGKERELVASITSGASTYYADSVKGRFTISRDNAKNTVYFQMNSLKPEDTAVYYCAAEALGGAGDYSTLYIYDYWGQGTQVTVSS”, for which the “polyreactivity (PSR sort gate)” value was “low polyreactivity”.

Regarding “QVQLVESGGGLVQAGGSLRLSCAASGNIIDANAIGWYRPAPGKERQLVAAITSSGGSTYYADSVKGRFTISRDNAKNTVYLQMNSLKPEDTAVYYCAKSHAIYYWWDESWGQGTQVTVSS”, the “polyreactivity (PSR sort gate)” value was “low polyreactivity”. Regarding “QVQLVESGGGLVQAGGSLRLSCAASGNIISIYAMGWYRQAPGKEREFVASNDWSVASTYYADSVKGRFTISRDNAKNTVYLQMNSLKPEDTAVYYCAAELFGLKYGYYLSYDYWGQGTQVTVSS”, the “polyreactivity (PSR sort gate)” value was “high polyreactivity”. As to “QVQLVESGGGLVQAGGSLRLSCAASGNILFSYAMGWYRQAPRKERELVAAISSSGGSTYYADSVKGRFTISRDNAKNNVYLQMNSLKPEDTAVYYCARYSFYKYDYWGQGTQVTVSS”, the “polyreactivity (PSR sort gate)” value is “high polyreactivity”. In the case of “QVQLVESGGGLVQAGGSLRLSCAASGNILSVYTLGWYRQAPGKERELVANITYSGDRTYADSVQVRFTISRDNAKTTVYLQMKILKPEDTAVYYCSKDGYPTGGPYWGGMDYWGQGTQVTVSS” it was “low polyreactivity”.
